T1: His-MIRO-1 (C. elegans, UniProt Q94263 1-602)
T1 construct: C. elegans MIRO-1, residues 1-602; source: E. coli BL21 (DE3) codon plus, purified (Ni2+-Sepharose, size-exclusion chromatography)
T1 sequence (looked up): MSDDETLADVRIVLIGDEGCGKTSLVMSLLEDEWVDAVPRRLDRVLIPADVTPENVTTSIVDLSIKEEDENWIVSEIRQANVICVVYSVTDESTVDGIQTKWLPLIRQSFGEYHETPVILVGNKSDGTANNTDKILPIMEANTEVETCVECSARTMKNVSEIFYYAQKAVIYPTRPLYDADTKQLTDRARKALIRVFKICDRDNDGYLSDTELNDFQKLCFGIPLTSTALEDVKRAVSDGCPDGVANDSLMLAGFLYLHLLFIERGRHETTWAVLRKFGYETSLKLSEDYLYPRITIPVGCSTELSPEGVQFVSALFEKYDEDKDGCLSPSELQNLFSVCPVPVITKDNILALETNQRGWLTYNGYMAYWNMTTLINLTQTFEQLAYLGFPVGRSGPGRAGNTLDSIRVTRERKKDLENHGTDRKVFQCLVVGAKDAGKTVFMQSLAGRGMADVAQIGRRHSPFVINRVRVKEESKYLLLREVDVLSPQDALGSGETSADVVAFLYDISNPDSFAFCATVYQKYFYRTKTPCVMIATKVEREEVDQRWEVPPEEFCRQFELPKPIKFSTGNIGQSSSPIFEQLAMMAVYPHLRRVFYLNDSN

T2: Trx-MTX-1 (C. elegans, UniProt O45503 1-281)
T2 construct: C. elegans MTX-1, residues 1-281
T2 sequence (looked up): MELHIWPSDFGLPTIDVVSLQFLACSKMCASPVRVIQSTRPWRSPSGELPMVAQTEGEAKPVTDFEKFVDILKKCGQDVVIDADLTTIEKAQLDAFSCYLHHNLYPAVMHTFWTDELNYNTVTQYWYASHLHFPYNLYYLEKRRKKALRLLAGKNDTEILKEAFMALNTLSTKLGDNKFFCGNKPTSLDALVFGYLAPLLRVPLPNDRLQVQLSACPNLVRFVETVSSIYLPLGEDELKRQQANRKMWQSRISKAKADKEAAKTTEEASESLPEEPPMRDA


Key:
His-MIRO-1 = biological target: T1, His-MIRO-1; assay: SEC; analytical gel filtration of purified proteins, Superdex-200 10/300, 25 mM HEPES pH 7.4, 100 mM NaCl, 1 mM DTT, 1 mM EDTA; fractions analysed by SDS-PAGE with Coomassie-blue staining; settings: both partners purified
Trx-MTX-1 = biological target: T2, Trx-MTX-1; assay: as above; settings: both partners purified

Row | Binder | binding result (His-MIRO-1) | binding result (Trx-MTX-1)
1 | MTX-1/2 complex (formed by co-expression of Trx-MTX-1 and Trx-MTX-2) (complex, C. elegans, C. elegans MTX-1, residues 1-281; C. elegans MTX-2, full length; Complex formed beforehand by co-expression of the two chains; also called MTX-1/MTX-2 complex; metaxin complex; source: E. coli BL21 (DE3) codon plus, co-expressed (pRSFDuet-1); in cell lysate (pull-down); purified (Ni2+-Sepharose, size-exclusion chromatography) for gel filtration) chain 1: MELHIWPSDFGLPTIDVVSLQFLACSKMCASPVRVIQSTRPWRSPSGELPMVAQTEGEAKPVTDFEKFVDILKKCGQDVVIDADLTTIEKAQLDAFSCYLHHNLYPAVMHTFWTDELNYNTVTQYWYASHLHFPYNLYYLEKRRKKALRLLAGKNDTEILKEAFMALNTLSTKLGDNKFFCGNKPTSLDALVFGYLAPLLRVPLPNDRLQVQLSACPNLVRFVETVSSIYLPLGEDELKRQQANRKMWQSRISKAKADKEAAKTTEEASESLPEEPPMRDA chain 2: MSSSGVITQLVTDALSMNAAQDWEDVSLFTPYLNDQALMYDFADCLAVQTFLRMTSLPFNVRQRPNVDFISPDGVVPLLKINKTLITGFNAIVDFVHKKGVTLTSHLSETQVADMRANISMIEHLLTTVEKFVLWNHDETYDKVTKLRYGSVYHWPLSSVLPFVKRRKILEELSDKDWDTKTMDEVGEQADKVFRALSAQLGSQKYLTGDLPTEADALLFGHMYTLITVR | binds | 
2 | Trx-MTX-2 (natural protein, C. elegans, UniProt P34599 1-230, looked up, C. elegans MTX-2, full length; source: E. coli BL21 (DE3) codon plus; in cell lysate (pull-down); purified (Ni2+-Sepharose, size-exclusion chromatography) for gel filtration) MSSSGVITQLVTDALSMNAAQDWEDVSLFTPYLNDQALMYDFADCLAVQTFLRMTSLPFNVRQRPNVDFISPDGVVPLLKINKTLITGFNAIVDFVHKKGVTLTSHLSETQVADMRANISMIEHLLTTVEKFVLWNHDETYDKVTKLRYGSVYHWPLSSVLPFVKRRKILEELSDKDWDTKTMDEVGEQADKVFRALSAQLGSQKYLTGDLPTEADALLFGHMYTLITVR | binds | binds

Reference: article PMC7782850, “Metaxins are core components of mitochondrial transport adaptor complexes” (Nature Communications, 2021)
